In PMC8439434:

Tests used:
[1] = molecular target: HLA-B*08:01 (human (endogenous in the Steinlin EBV transformed cell line)); test: radioligand binding; previously validated B*08:01 inhibition of binding assay (ref. 10); radiolabeled probe not named
[2] = molecular target: HLA-C*07:01 purified from the Steinlin EBV transformed homozygous cell line (human (endogenous in the Steinlin EBV transformed cell line)); test: radioligand binding; classical MHC-peptide inhibition of binding assay specific for HLA-C*07:01: purified MHC from the Steinlin line, radiolabeled 3424.0028 as probe, test peptides as inhibitors, anti-HLA Class I B123.2 mAb

In the case of “peptide 3424.0028 (…, DNA replication licensing factor MCM5 289-297)”, the fold lower affinity than in the C*07:01 assay [1] is reported as 1500 fold and the affinity (from inhibition of binding) [2] is reported as 0.21 nM.
